Numbering of substitutions follows the chain as printed. No end group written: not given here.

Here are results for nine molecules from patent US20090111753A1, “Nogo-A Polypeptide Fragments, Variant Nogo Receptor-1 Polypeptides, and Uses Thereof” (Yale University, priority 2004, published 2009).

One experiment deals with T1, NgR (Homo sapiens, UniProt Q9BZR6).
T1 construct: expressed in transfected cells; host or cells: COS-7
T1 sequence (Q9BZR6 27-447): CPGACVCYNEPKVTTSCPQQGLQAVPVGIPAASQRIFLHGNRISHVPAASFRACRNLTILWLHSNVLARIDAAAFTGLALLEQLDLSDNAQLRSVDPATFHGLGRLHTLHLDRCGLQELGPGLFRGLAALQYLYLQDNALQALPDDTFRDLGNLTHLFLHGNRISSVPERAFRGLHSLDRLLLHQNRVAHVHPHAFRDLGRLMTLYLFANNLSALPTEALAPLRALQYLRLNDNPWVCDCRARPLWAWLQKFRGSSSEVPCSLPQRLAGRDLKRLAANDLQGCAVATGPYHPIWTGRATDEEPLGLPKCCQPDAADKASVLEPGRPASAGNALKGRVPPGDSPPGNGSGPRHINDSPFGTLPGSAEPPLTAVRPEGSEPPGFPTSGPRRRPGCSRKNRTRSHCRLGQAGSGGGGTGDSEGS
Put plainly: AP fusion protein binding to NgR expressing COS-7 cells. To be noted: for NgR Kd (nM) / Kd: AP fused Amino-Nogo fragments in conditioned media on NgR expressing COS-7 cells, 'No binding at' cells continue on the next line: AmNg A 150 nM, a.a. 1000-1018, a.a. 1005-1018, Amino of NgC 25 nM, a.a. 950-1004 50 nM, Amino of NgB 100 nM; for binding to NgR (COS-7 cells expressing NgR): qualitative. From the text:
Several alkaline phosphatase (AP) fusion proteins containing various Nogo-A segments derived from regions between the amino terminus and the first hydrophobic segment were examined to identify the mechanism of Amino-Nogo-A action. To generate additional AP fusion proteins, human amino Nogo fragments were amplified and ligated to the pcAP6 vector digested with restriction enzymes EcoRI and XhoI as described (Fournier, A. E., et al., Nature 409:341-346 (2001)). Plasmids were then transfected into HEK293T cells and conditioned media were collected after 7 days. None of these fragments bind with high affinity to non-transfected COS-7 cells. […] This binding is saturable with a Kd indistinguishable from that for AP-Nogo-66 association with NgR (Table I). To better define the region responsible for Amino-Nogo interaction with NgR, a range of truncation mutants of Amino-Nogo were examined as AP fusion proteins. […] In fact, the NgR-interacting segment of Amino-Nogo is fully accounted for in the extreme carboxyl 24 amino acids (aa 995-1018, Amino-Nogo-A-24) (Table I and FIG. 1D). […] We named this domain (aa 995-1013) as Amino-Nogo-A-19.
Binding Kds for AP fused Amino-Nogo fragments were measured by applying conditioned media containing AP fusion protein to NgR expressing COS-7 cells. Bound AP was stained and measured.
It has been recognized that the Amino-Nogo-A protein inhibits non-neuronal cell spreading and axonal outgrowth when the protein is substrate bound (Chen, M. S., et al., Nature 403:434-439 (2000); Fournier, A. E., et al., Nature 409:341-346 (2001)). […] The later domain has been termed Δ20. To determine whether the NgR-interacting aa of Amino-Nogo-A described in Example 1 regulate cell spreading and axonal outgrowth, various fragments were expressed as GST fusion proteins and purified from E. coli. To generate GST fusion proteins, amino Nogo fragments were cloned in pGEX2T (Amersham Pharmacia). Native and soluble GST fusion proteins were expressed and purified as described (GrandPre, T., et al., Nature 403:439-444 (2000)). COS-7 binding assays were done as described (Fournier, A. E., et al., Nature 409:341-346 (2001)). Bound AP to COS-7 cells was measured using NIH image software. Fibroblast spreading and cDRG outgrowth assay were done as described (Fournier, A. E., et al., Nature 409:341-346 (2001)) with some modifications. Briefly, 50 μl of purified GST fusion protein or peptides diluted in PBS was pipetted into polylysine precoated 96 well plates (Becton Dickson Biocoat plates) and dried overnight at room temperature. For fibroblast spreading assay, subconfluent COS-7 cells were then plated for 1 hour in serum containing medium before fixation and staining with rho damine-phalloidin.

The subject of another experiment is NgR ligands. Put plainly: Binding of alanine substituted NgR mutants to NgR ligands, summary categories. To be noted: AP-Nogo66, AP-B4C, AP-B4C66, AP-Lingo-1, AP-OMgp and AP-MAG; compared to wild type NgR. Put shortly: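 AP-fused ligands (Nogo66, B4C, B4C66, Lingo-1, OMgp, MAG) were assayed against 74 Ala-substitution mutants of human NgR1 targeting surface charged patches, glycosylation sites and predicted binding regions, plus the D259N variant. Outcomes were grouped into categories: binding lost for all ligands, retained for all, or ligand-selective.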

The next experiment concerns AP-MAG. Put plainly: Binding of AP-MAG to COS-7 cells expressing NgR mutants. More on the design: key: ++: WT level; +: weaker than wild type; trace binding; −: no binding. To be noted: AP-MAG 30 nM; level of binding compared to wild type NgR.
A further experiment has as its target T2, AP-Nogo66 (Homo sapiens, UniProt Q9NQC3).
T2 construct: made in house; NgR mutants: COS-7
T2 sequence (Q9NQC3 1055-1120 limits assumed): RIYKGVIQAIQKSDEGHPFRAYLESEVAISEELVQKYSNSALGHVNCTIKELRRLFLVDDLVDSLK
Put plainly: Binding of AP-Nogo66 to COS-7 cells expressing NgR mutants. Further details: key: ++: WT level; +: weaker than wild type; trace binding; −: no binding. To be noted: AP-Ng66 5 nM; level of binding compared to wild type NgR. Put shortly: (§1)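 COS-7 cells expressing Ala-substituted human NgR1 mutants incubated with AP-fused ligands at near-Kd levels (AP-Ng66 5 nM, AP-B4C66 0.5 nM, AP-Lingo-1 10 nM, AP-OMGP 10 nM). Bound AP stained and measured as % of wild-type NgR; graded ++/+/tr/−.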

In the next experiment the target is T3, AP-Lingo-1 (Homo sapiens, UniProt Q96FE5).
T3 construct: made in house; NgR mutants: COS-7
T3 sequence (Q96FE5 40-538 limits assumed): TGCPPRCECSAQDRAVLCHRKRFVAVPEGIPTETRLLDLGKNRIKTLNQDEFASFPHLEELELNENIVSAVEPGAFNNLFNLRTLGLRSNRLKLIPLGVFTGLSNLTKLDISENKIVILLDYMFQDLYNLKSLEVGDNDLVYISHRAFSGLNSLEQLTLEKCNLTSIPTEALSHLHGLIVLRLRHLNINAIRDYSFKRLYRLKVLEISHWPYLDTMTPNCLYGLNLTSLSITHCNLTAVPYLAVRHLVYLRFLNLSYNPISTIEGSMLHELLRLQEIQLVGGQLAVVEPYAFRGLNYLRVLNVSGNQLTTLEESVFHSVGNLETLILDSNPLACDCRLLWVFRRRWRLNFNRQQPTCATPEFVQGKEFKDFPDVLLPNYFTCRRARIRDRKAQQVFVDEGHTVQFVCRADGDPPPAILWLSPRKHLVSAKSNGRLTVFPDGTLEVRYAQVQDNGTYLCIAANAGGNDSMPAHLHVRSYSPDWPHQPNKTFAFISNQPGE
The experiment is described as follows: Binding of AP-Lingo-1 to COS-7 cells expressing NgR mutants. More on the design: key: ++: WT level; +: weaker than wild type; trace binding; −: no binding. To be noted: AP-Lingo-1 10 nM; level of binding compared to wild type NgR. The method, boiled down:
as §1

The next experiment concerns AP-B4C66. Put plainly: Binding of AP-B4C66 to COS-7 cells expressing NgR mutants. Further details: key: ++: WT level; +: weaker than wild type; trace binding; −: no binding. To be noted: AP-B4C66 0.5 nM; level of binding compared to wild type NgR. Put shortly: as §1
The next experiment concerns AP-OMgp. Put plainly: Binding of AP-OMgp to COS-7 cells expressing NgR mutants. Further details: key: ++: WT level; +: weaker than wild type; trace binding; −: no binding. To be noted: AP-OMGP 10 nM; level of binding compared to wild type NgR. Put shortly: as §1
A further experiment has as its target T4, AP-B4C (Homo sapiens, UniProt Q9NQC3).
T4 construct: a.a; 950-1018 (AmNg B4C); made in house; host or cells: AP ligand: HEK293T conditioned medium; NgR mutants: COS-7
T4 sequence (Q9NQC3 950-1018): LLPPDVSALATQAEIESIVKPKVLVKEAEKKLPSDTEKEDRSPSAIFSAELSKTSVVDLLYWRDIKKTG
The experiment is described as follows: Binding of AP-B4C to COS-7 cells expressing NgR mutants. More on the design: key: ++: WT level; +: weaker than wild type; trace binding; −: no binding. To be noted: AP-B4C 10 nM; level of binding compared to wild type NgR.

In the case of “MDGQKKNWKDKVVDLLYWRDIKKTG (not fully specified) [Amino of NgC, AP fusion protein of Amino-Nogo residues of Nogo-C]”, in the experiment with NgR, the “NgR Kd (nM)” value is “No binding” and the “binding to NgR (COS-7 cells expressing NgR)” value is “fail to associate with NgR-expressing cells”.
For “............IFSAELSKTS (LLPPDVSALATQAEIESIVKPKVLVKEAEKKLPSDTEKEDRSPSAIFSAELSKTS; also: alkaline phosphatase fusion; UniProt Q9NQC3 950-1004, looked up, fragment) [a.a. 950-1004, AP fusion protein of aa from the Nogo-A-specific region alone]”, in that order: “No binding” and “do not bind to NgR”.
“VVDLLYWRDIKKTG (also: alkaline phosphatase fusion; UniProt Q9NQC3 1005-1018, looked up, fragment) [a.a. 1005-1018, AP fusion protein of Nogo-A aa 1005-1018]”: the “NgR Kd (nM)” value in the experiment with NgR is given as “No binding”.
One may read the Kd as the equilibrium constant for the complex coming apart. As to IFSAELSKTSVVDLLYWRDIK [a.a. 995-1015], the Kd at NgR amounted to 4.55 ± 3.66 nM.
Take “LSKTSVVDLLYWRDIKKTG (also: alkaline phosphatase fusion; UniProt Q9NQC3 1000-1018, looked up, fragment) [a.a. 1000-1018, AP fusion protein of Nogo-A aa 1000-1018]”: in the experiment with NgR, the “NgR Kd (nM)” value is “No binding”.

B1: 89, 90: human NgR1 mutant, listed residues mutated to alanine (protein)
chain: CPGACVCYNEPKVTTSCPQQGLQAVPVGIPAASQRIFLHGNRISHVPAASFRACRNLTILWLAANVLARIDAAAFTGLALLEQLDLSDNAQLRSVDPATFHGLGRLHTLHLDRCGLQELGPGLFRGLAALQYLYLQDNALQALPDDTFRDLGNLTHLFLHGNRISSVPERAFRGLHSLDRLLLHQNRVAHVHPHAFRDLGRLMTLYLFANNLSALPTEALAPLRALQYLRLNDNPWVCDCRARPLWAWLQKFRGSSSEVPCSLPQRLAGRDLKRLAANDLQGCAVATGPYHPIWTGRATDEEPLGLPKCCQPDAADKASVLEPGRPASAGNALKGRVPPGDSPPGNGSGPRHINDSPFGTLPGSAEPPLTAVRPEGSEPPGFPTSGPRRRPGCSRKNRTRSHCRLGQAGSGGGGTGDSEGSGALPSLTCSLTPLGLALVLWTVLGPC
For the molecule B1, the “ligand binding category of NgR mutant (Table II)” value (“ligand binding category” for short) in the experiment on NgR ligands is recorded as “Differential binding”. The MAG result in the experiment with AP-MAG was “−”. Besides, the Ng66 result with AP-Nogo66 is on record as “+”. For the same molecule, in the experiment with AP-Lingo-1, the Lingo-1 entry is “−”. Moreover, the B4C-66 result in the experiment on AP-B4C66 is on record as “+”. Also, the OMgp result with AP-OMgp is “−”. Moreover, the B4C entry in the experiment with AP-B4C is reported as “+”.

B2: 95, 97: human NgR1 mutant, listed residues mutated to alanine (protein)
chain: B1 chain with A63H, A64S, R69A, D71A
B2: the “ligand binding category” value in the experiment with NgR ligands is “Differential binding”. In the experiment with AP-MAG, the MAG entry is reported as “tr”. Also, in the experiment with AP-Nogo66, the Ng66 result is given as “+”. The Lingo-1 entry with AP-Lingo-1 is “+”. For the same molecule, in the experiment on AP-B4C66, the B4C-66 entry was “+”. In addition, in the experiment on AP-OMgp, the OMgp entry is on record as “tr”. In the experiment with AP-B4C, the B4C entry is recorded as “++”.

B3: 108, 131: human NgR1 mutant, listed residues mutated to alanine (protein)
chain: B1 chain with A63H, A64S, E82A, R105A
Regarding B3, the “ligand binding category” value with NgR ligands was “Differential binding”. Further, in the experiment on AP-MAG, the MAG entry was “tr”. The Ng66 result with AP-Nogo66 was “+”. Further, in the experiment with AP-Lingo-1, the Lingo-1 result is reported as “−”. Also, in the experiment with AP-B4C66, the B4C-66 entry is listed as “+”. Also, in the experiment on AP-OMgp, the OMgp result is “+”. In the experiment with AP-B4C, the B4C entry is recorded as “+”.

B4: a.a. 622-1018 (AmNg B): AP fusion protein of the carboxyl half of Amino-Nogo (fragment B), aa 622-1018 (protein)
chain: SAVPSAGASVIQPSSSPLEASSVNYESIKHEPENPPPYEEAMSVSLKKVSGIKEEIKEPENINAALQETEAPYISIACDLIKETKLSAEPAPDFSDYSEMAKVEQPVPDHSELVEDSSPDSEPVDLFSDDSIPDVPQKQDETVMLVKESLTETSFESMIEYENKEKLSALPPEGGKPYLESFKLSLDNTKDTLLPDEVSTLSKKEKIPLQMEELSTAVYSNDDLFISKEAQIRETETFSDSSPIEIIDEFPTLISSKTDSFSKLAREYTDLEVSHKSEIANAPDGAGSLPCTELPHDLSLKNIQPKVEEKISFSDDFSKNGSATSKVLLLPPDVSALATQAEIESIVKPKVLVKEAEKKLPSDTEKEDRSPSAIFSAELSKTSVVDLLYWRDIKKTG
modifications: left off: large carriers
B4: in the experiment with NgR, the Kd was 6.66 ± 1.49 nM and the “binding to NgR (COS-7 cells expressing NgR)” value is “high affinity binding”.
